B1: NLV3 TCR beta chain (CDR3β only) (parent)
chain: ASSPTGGSPSPLH
partner: NLCPMVATV

Variants of: B1
Experiment: T-Switch: Jurkat TCRβ−/− cells expressing a CDR3 saturation-mutagenesis library, stained with two peptide-HLA-A*02:01 tetramers (original and novel peptide) plus anti-CD3, FACS-sorted into four gates, gDNA sequenced
Conditions: with HLA-A*02:01 with peptide … (NLV 2-1, the novel peptide), tetramers 1 µg/mL, 30 min on ice, SP, DP and SW gates expanded about 10 days between rounds ('two to three rounds of selection' in the Methods), gate SW: higher = more of the variant in the gate that binds the novel peptide and not the original one = switched binding. Fold enrichment of the CDR3 variant in one FACS gate of a two-tetramer stain, unresolved parent, parent is a CDR3 fragment, scale: fold enrichment, numbering: sequential-on-construct, sequence starts at 1

Variant | enrichment
[…] (CDR3 as printed); S8E derived by comparing it with the table's wild-type CDR3 ASSPTGGSPSPLH | 0
[…] (CDR3 as printed); G6I derived by comparing it with the table's wild-type CDR3 ASSPTGGSPSPLH | 0
[…] (CDR3 as printed); S8F derived by comparing it with the table's wild-type CDR3 ASSPTGGSPSPLH | 0
[…] (CDR3 as printed); A1D derived by comparing it with the table's wild-type CDR3 ASSPTGGSPSPLH | 0
[…] (CDR3 as printed); G7K derived by comparing it with the table's wild-type CDR3 ASSPTGGSPSPLH | 0
[…] (CDR3 as printed); L12V derived by comparing it with the table's wild-type CDR3 ASSPTGGSPSPLH | 0
[…] (CDR3 as printed); P9M derived by comparing it with the table's wild-type CDR3 ASSPTGGSPSPLH | 0
[…] (CDR3 as printed); P9A derived by comparing it with the table's wild-type CDR3 ASSPTGGSPSPLH | 0
[…] (CDR3 as printed); P9T derived by comparing it with the table's wild-type CDR3 ASSPTGGSPSPLH | 0
[…] (CDR3 as printed); P4Q derived by comparing it with the table's wild-type CDR3 ASSPTGGSPSPLH | 0
[…] (CDR3 as printed); T5Q derived by comparing it with the table's wild-type CDR3 ASSPTGGSPSPLH | 0
[…] (CDR3 as printed); G7Q derived by comparing it with the table's wild-type CDR3 ASSPTGGSPSPLH | 0
[…] (CDR3 as printed); L12E derived by comparing it with the table's wild-type CDR3 ASSPTGGSPSPLH | 0
[…] (CDR3 as printed); S2N derived by comparing it with the table's wild-type CDR3 ASSPTGGSPSPLH | 0
[…] (CDR3 as printed); T5K derived by comparing it with the table's wild-type CDR3 ASSPTGGSPSPLH | 0
[…] (CDR3 as printed); S8N derived by comparing it with the table's wild-type CDR3 ASSPTGGSPSPLH | 0
[…] (CDR3 as printed); S10G derived by comparing it with the table's wild-type CDR3 ASSPTGGSPSPLH | 0
[…] (CDR3 as printed); A1Q derived by comparing it with the table's wild-type CDR3 ASSPTGGSPSPLH | 0
[…] (CDR3 as printed); P9E derived by comparing it with the table's wild-type CDR3 ASSPTGGSPSPLH | 0
[…] (CDR3 as printed); P9R derived by comparing it with the table's wild-type CDR3 ASSPTGGSPSPLH | 0
[…] (CDR3 as printed); G6N derived by comparing it with the table's wild-type CDR3 ASSPTGGSPSPLH | 0

Variant | enrichment
[…] (CDR3 as printed); S10W derived by comparing it with the table's wild-type CDR3 ASSPTGGSPSPLH | 0
[…] (CDR3 as printed); H13C derived by comparing it with the table's wild-type CDR3 ASSPTGGSPSPLH | 0
[…] (CDR3 as printed); H13W derived by comparing it with the table's wild-type CDR3 ASSPTGGSPSPLH | 0
[…] (CDR3 as printed); H13S derived by comparing it with the table's wild-type CDR3 ASSPTGGSPSPLH | 0
[…] (CDR3 as printed); G6R derived by comparing it with the table's wild-type CDR3 ASSPTGGSPSPLH | 0
[…] (CDR3 as printed); L12S derived by comparing it with the table's wild-type CDR3 ASSPTGGSPSPLH | 0
[…] (CDR3 as printed); P11H derived by comparing it with the table's wild-type CDR3 ASSPTGGSPSPLH | 0
[…] (CDR3 as printed); S3H derived by comparing it with the table's wild-type CDR3 ASSPTGGSPSPLH | 0
[…] (CDR3 as printed); S3Q derived by comparing it with the table's wild-type CDR3 ASSPTGGSPSPLH | 0
[…] (CDR3 as printed); T5S derived by comparing it with the table's wild-type CDR3 ASSPTGGSPSPLH | 0
[…] (CDR3 as printed); P11G derived by comparing it with the table's wild-type CDR3 ASSPTGGSPSPLH | 0
[…] (CDR3 as printed); H13R derived by comparing it with the table's wild-type CDR3 ASSPTGGSPSPLH | 0
[…] (CDR3 as printed); G7T derived by comparing it with the table's wild-type CDR3 ASSPTGGSPSPLH | 0
[…] (CDR3 as printed); G6Y derived by comparing it with the table's wild-type CDR3 ASSPTGGSPSPLH | 0
[…] (CDR3 as printed); P11K derived by comparing it with the table's wild-type CDR3 ASSPTGGSPSPLH | 0
[…] (CDR3 as printed); P11S derived by comparing it with the table's wild-type CDR3 ASSPTGGSPSPLH | 0
[…] (CDR3 as printed); P4F derived by comparing it with the table's wild-type CDR3 ASSPTGGSPSPLH | 0
[…] (CDR3 as printed); P11N derived by comparing it with the table's wild-type CDR3 ASSPTGGSPSPLH | 0
[…] (CDR3 as printed); S3W derived by comparing it with the table's wild-type CDR3 ASSPTGGSPSPLH | 0
[…] (CDR3 as printed); S10L derived by comparing it with the table's wild-type CDR3 ASSPTGGSPSPLH | 0
[…] (CDR3 as printed); S2F derived by comparing it with the table's wild-type CDR3 ASSPTGGSPSPLH | 0
